Experimental data taken from patent US12083109B2, “Neurokinin antagonists and uses thereof” (California Institute of Technology, priority 2017, dated 2024).
“Also recorded” adds a separate entry of the source.

Test system: Tac2 mRNA
Assay: Tac2 mRNA knockdown by FISH and qRT-PCR in brain of shRNA mice
Assay type: in vivo, mouse
Details: for knockdown of Tac2 mRNA (efficacy of shRNA): FISH and qRT-PCR; for Tac2 mRNA in CeA / Tac2 mRNA in DMH / Tac2 mRNA in dBNSTa: FISH fluorescence / qRT-PCR vs luciferase shRNA control
Procedure: Fluorescent in situ hybridization (FISH) was carried out according to the protocol described in (Thompson et al., 2008; incorporated by reference in its entirety) with modifications. Briefly, mice were transcardially perfused with 1×PBS followed by 4% paraformaldehyde/PBS (PFA) in 1×PBS. Brains were fixed in 4% PFA for 3-4 hours at 4° C., and cryoprotected overnight in 15% sucrose at 4° C. Brains were embedded in OCT Compound (Fisher Scientific) and cryosectioned at 30 μm thickness and mounted on Superfrost Plus slides (Fisher Scientific). Sections were fixed in 4% PFA for 30 minutes, acetylated with 0.25% acetic anhydride in 0.1 M triethanolamine for 10 minutes, dehydrated with increasing concentrations of EtOH (50, 70, 95 and 100%), gently treated with proteinase K ([…] in 0.01M Tris-HCl pH 7.4 and 0.001M EDTA) for 10 minutes, and fixed in 4% PFA for 20 minutes. All procedures were performed at room temperature (RT). The hybridization buffer contained 50% deionized formamide, 3× standard saline citrate (SSC), 0.12 M PB (pH 7.4), 10% dextran sulfate, 0.12 mg/ml yeast tRNA, 0.1 mg/mL calf thymus DNA, and 1× Dehardt solution. The sections were prehybridized at 63° C. in hybridization buffer for 30 minutes and then hybridized with the digoxigenin-labeled Tac2 RNA probe (300 ng/ml) in hybridization buffer at 63° C. for 16 hours. After hybridization, the sections were washed with 5×SSC for 10 minutes, 4×SSC/50% formamide for 20 minutes, 2×SSC/50% formamide for 30 minutes, and 0.1×SSC for 20 minutes twice each at 61° C. The sections were blocked with 4% sheep serum in TNT buffer (Tris-HCl pH7.5, 0.15 M NaCl and 0.00075% Tween 20) for 30 minutes and TNB Blocking buffer (TSA blocking reagent, PerkinElmer, Waltham, MA) for 30 minutes at RT. The sections were incubated overnight at RT with anti-digoxigenin-POD antibody (1:600, Roche Diagnostics) in TNB buffer. The sections were washed with TNT buffer and tyramide-biotin signal amplification was performed using the TSA Plus Biotin Kit (PerkinElmer). Signals were visualized after 1 hour incubation with Alexa Fluor 594 Streptavidin (Jackson ImmunoResearch) or Alexa Fluor 488 Streptavidin (Invitrogen) at RT. Sections were counterstained with DAPI ([…] in PBS), washed with 1×PBS, and coverslipped using Fluoro-Gel with Tris Buffer (Electron Microscopy Sciences). Tissue images of entire coronal brain sections were taken using an Olympus VS120-S6-W slide-scanner and cells positive for the probe were counted. Cell Counting
Following confocal or slide-scanner imaging, quantification of labeled cells was performed using ImageJ and Metamorph. Cells were counted by an observer blind to experimental conditions. Brain images were converted to greyscale (16-bit) in ImageJ and adjusted using automatic thresholding and watershed separation. Cells were either counted automatically using ImageJ's particle analysis algorithm (random sections were counted manually to cross-check that automated scoring was consistent with manual human scoring); otherwise, cells were counted manually using MetaMorph. Cells that were not entirely contained within a given region of interest (ROI) were excluded from analyses. Relative fluorescent intensities were measured automatically using MetaMorph for a given ROI. Raw cell counts within an ROI were divided by the size of the ROI (mm^2) to produce the number of positively labeled cells/mm^2.
Group housed or isolated (30 minutes, 24 hours, 2 weeks) mice were decapitated and brains were quickly removed and placed in RNA Later (Qiagen) at 4° C. Tissue from dBNSTa, DMH, CeA, ACC, and dHPC was microdissected and placed in RNA Later. Tissue was then homogenized and RNA purified using an RNAeasy Plus Mini Kit (Qiagen). 150ng of total RNA/region/condition was then incubated with 3 μl of Turbo DNase, 1 μl of Murine RNase Inhibitor in 1× Turbo DNase buffer for 15 minutes at 37° C. to remove any contaminating genomic DNA. […]

Molecule | knockdown of Tac2 mRNA (efficacy of shRNA) | Tac2 mRNA in CeA | Tac2 mRNA in DMH | Tac2 mRNA in dBNSTa
shRNA-2: small hairpin RNA for mouse Tac2 gene (SEQ ID NO: 11, 12), expressed from AAV5-H1-shRNA-CMV-zsGreen (nucleic acid) chain 1: CCGCCTCAACCCCATAGCAATTAGCTTCCTGTCACTAATTGCTATGGGGTTGAGGCTTTTTT chain 2: AAAAAAGCCTCAACCCCATAGCAATTAGTGACAGGAAGCTAATTGCTATGGGGTTGAGGCGG | proved effective; also recorded: strongest reductions; also recorded: stronger knockdown | appeared reduced | reduced | reduced
shRNA-1: small hairpin RNA for mouse Tac2 gene (SEQ ID NO: 9, 10), expressed from AAV5-H1-shRNA-CMV-zsGreen (nucleic acid) chain 1: CCGACGTGGTTGAAGAGAACACCGCTTCCTGTCACGGTGTTCTCTTCAACCACGTCTTTTTT chain 2: AAAAAAGACGTGGTTGAAGAGAACACCGTGACAGGAAGCGGTGTTCTCTTCAACCACGTCGG | proved effective | appeared reduced | reduced | reduced
